Test results from PMC9461283.

Biological target: SARS-CoV-2 S receptor-binding domain (RBD) (SARS-CoV-2 (isolate Wuhan-Hu-1)) (UniProt P0DTC2)
Test: SPR

Row | Substance | Kd
1 | rhesus macaca (Macaca mulatta) ACE2 ectodomain (ectoACE2), N-terminal 367 aa (from UniProt F7AH40 1-367) (domain or fragment) | 68 nM
2 | cynomolgus macaque (Macaca fascicularis) ACE2 ectodomain (ectoACE2), N-terminal 367 aa (domain or fragment) | 69.2 nM
